Values joined by “and” are separate entries in the source; they are usually repeats but may differ in a detail not shown here. Equal entries are not always repeated. Where two headings read alike, the source gives them in different places.
Experiments:
[1] = Apparent water/1-octanol partition coefficient of SDS hydrophobic ion pair complexes
Source text: The relative solubilities in two phases is given in terms of an apparent partition coefficient. The apparent partition coefficient is defined as the ratio of the equilibrium concentration in an organic phase to that in an aqueous phase. The actual value of the apparent partition coefficient, P, is dependent on the two solvent systems employed. In all cases herein described, the organic phase is 1-octanol and the aqueous phase is water alone or with a minimal amount of HCl added.
(§3) Apparent partition coefficients were measured by dissolving a peptide in 1.25 ml of an aqueous solution. Before SDS addition, the pH was measured on a Beckman pH meter. Upon addition of an SDS solution, the solutions turned cloudy and a precipitate formed immediately. An equal volume of 1-octanol was added and the mixtures agitated, and then left undisturbed for several hours. Prior to analysis, the tubes were spun for 10 minutes at 4000 g. Each layer was removed and the absorbance measured on a Beckman DU-64 UV-visible spectrophotometer using 1 cm quartz cells. All apparent partition coefficients were corrected for changes in pH with differing SDS concentrations.
Results are described as logarithms of the apparent partition coefficient. A log P value of 0 means that the compound is equally soluble in water and the organic phase.

CCRF-CEM cells = test: Cytotoxicity, MTS cell proliferation assay; assay type: cell-based, human; settings: for IC50: Homo sapiens, 2-6 h exposure, 72 h growth, read-out: IC50 (half-maximal growth inhibition)
Source text: (§1) The cytotoxicity of arginine dodecyl ester was investigated in cell culture with two types of cells (see Cory et al., Cancer Commun., 3, 207-212 (1991)): CCRF-CEM cells, a human T-cell leukemia cell line that grows in suspension (obtained from the American Type Culture Collection, ATCC); and a green monkey kidney cell line (COS-7) that grows in monolayers (also obtained from ATCC). For comparison, the cells were also exposed to […] bromide (DTAB) (Sigma).
(§2) Cells were plated into 96-well plates (Corning) in a total of 200 μL Dulbecco's modified minimal essential medium for COS-7 cells, RPMI 1640 for CEM cells, supplemented with penicillin G (50 U/ml), streptomycin sulfate (50 μg/ml), and 10% fetal calf serum, at 10,000 cells/well for COS-7 amd 50,000 cells/well for CEM cells. The plates were incubated at 37° C. for 24 hours after plating. The cells were then exposed to various concentrations of the detergents. Each detergent concentration was used in 8 replicate wells. After 2-6 hours, media/detergent solutions were aspirated, and the wells were washed twice with PBS. For CEM suspension cells, centrifugation of the suspension at 1000×g for 5 min between each wash was required. After washing, 200 μL of fresh medium were added, and the cells were incubated for 72 hours. After 72 hours, cell proliferation was determined using the Promega CellTiter 96 AQueous Non-Radioactive Cell Proliferation Assay.

COS-7 cells [2] = test: Cytotoxicity, MTS cell proliferation assay; assay type: cell-based, green monkey; settings: for IC50: Chlorocebus sabaeus, 2-6 h exposure, 72 h growth, read-out: IC50 (half-maximal growth inhibition)
Source text: as §1, §2
CC-CHOL was tested for cytotoxicity as described in Example 38 using COS-7 and JEG-3 cells. JEG-3 cells are a human choriocarcinoma cell line available from ATCC. The culture medium was Eagle's minimum essential medium containing 10% serum.

[3] = Partitioning of anionic compounds with arginine esters; assay type: physicochemical
Method: Stock solutions of the arginine esters were made by first dissolving the powder in 0.1 N HCl to give a 10 mM solution and then raising the pH to a value between 5 and 6. The pH should not be raised above 8.
Anionic compounds were dissolved in pH 5.5 buffer (10 mM bis-tris propane, 10 mM CaCl2, 10 mM KCl). Appropriate amounts of the stock solution of arginine ester (see above), the anionic compound and buffer were mixed so that the final concentration of the anionic material was 1 mg/mL. An equal volume of organic solvent was added, and the samples were vortexed for 15 seconds on high speed. Layers were separated by centrifugation at 4000 rpm for 5 minutes. Concentrations of the anionic material in the aqueous and organic layers were determined by UV spectroscopy on a Beckman DU-64 series spectrophotometer.

[4] = Surface tension, critical micelle concentration; assay type: physicochemical; settings: in 0.1 N HCl
Method: Surface tension was measured using a Fisher surface tensiometer. Briefly, a platinum iridium ring with a diameter of 6 cm was lowered into the appropriate dilution of detergent in 0.1 N HCl. Surface tension was read at the point where the force on the ring upwards caused the ring to break contact with the liquid surface.

COS-7 cells [5] = test: Transfection of pRSV400luc plasmid, luciferase activity; assay type: cell-based, green monkey; settings: no liposomes or helper lipids
Source text: The plasmid used was pRSV400luc. It was obtained from Dr. David Gordon, Div. Endocrinology, University of Colorado School of Medicine, Denver, Colo. It was propagated in Escherichia coli strain DH5a (ATCC), isolated by a standard alkaline-SDS lysis procedure, and purified twice by isopycnic centrifugation on CsCl gradients (Sambrook et al., Molecular Cloning: A Laboratory Manual (Cold Spring Harbor Laboratory) (1989). COS-7 cells at approximately 50,000 cells per 60 mm diameter plate (Falcon) were used for transfection. Control experiments were done with Lipofectamine (GIBCO/Life Technologies, Gaithersburg, Md.).
In 200 total μL of serum-free medium, plasmid (20 μg) and Lipofectamine or arginine dodecyl ester were mixed and allowed to interact for 45 minutes. The volume was then brought to 1 mL with serum-free medium. Plates with cells were washed with serum-free medium. […]
After allowing cells to grow and express gene product for 36-50 hours, the cells were harvested. […] Intensity of luminescence should be proportional to the amount of expressed luciferase and, therefore, the efficiency of transfection. “Background” is the reading from just the substrate mixture on the luminometer before addition of cell lysate. […] Any reading over 100 units is considered significant.

[6] = Solubility of arginine octyl ester powder; assay type: physicochemical
[7] = Thermal denaturation / melting point followed at 222 nm (CD, absorbance); assay type: physicochemical
Method: Both circular dichroism (CD) signal and light scattering (as measured by changes in absorbance) were measured at 222 nm and the melting point determined by an inflection point in the measured scan.

[8] = SDS-insulin complex
Method: as §3

[9] = aqueous solution; cited from earlier work
[10] = Apparent solubility of HIP complexes in organic solvents

NC(=O)CC[C@@H]1NC(=O)[C@H](Cc2ccccc2)NC(=O)[C@H](Cc2ccc(O)cc2)NC(=O)[C@@H](N)CSSC[C@@H](C(=O)N2CCC[C@H]2C(=O)N[C@@H](CCCN=C(N)N)C(=O)NCC(N)=O)NC(=O)[C@H](CC(N)=O)NC1=O [AVP, 8-Arg-vasopressin]
increase of apparent partition coefficient on SDS addition ([1]; 1-octanol/water, stoichiometric SDS): nearly four orders of magnitude

CCCCCCCCCCCCCC[N+](C)(C)C [DTAB, tetradecyltrimethylammonium bromide, reference compound]
IC50 (CCRF-CEM cells): 20 µM
IC50 (COS-7 cells [2]): 80 µM

Nc1ncnc2c1ncn2[C@@H]1O[C@H](COP(=O)(O)OP(=O)(O)OP(=O)(O)O)[C@@H](O)[C@H]1O [adenosine triphosphate]
log p ([3]; octanol/pH 5.5 buffer, pH 5.5, ester C12, detergent:anionic compound 1:1, solvent octanol, read-out: log p): -1.48
log p ([3]; octanol/pH 5.5 buffer, pH 5.5, ester C12, detergent:anionic compound 3:1, solvent octanol, read-out: log p): 0.022
log p ([3]; octanol/pH 5.5 buffer, pH 5.5, ester none, solvent octanol, pH 5.5 buffer, read-out: log p): -3.23

CCCCCCCCCCCCOC(=O)[C@@H](N)CCCNC(=N)N [arginine dodecyl ester]
critical micelle concentration (cmc) [4]: approximately 0.3 mM and ~0.10 mg/ml
toxicity relative to DTAB (CCRF-CEM cells): seven-fold less toxicity
IC50 (CCRF-CEM cells): 150 µM
toxicity relative to DTAB (COS-7 cells [2]): approximately two-fold less toxicity
IC50 (COS-7 cells [2]): 175 µM
transfection of plasmid (COS-7 cells [5]): promoted transection of the plasmid in a concentration and time dependent manner

CCCCCCCCOC(=O)[C@@H](N)CCCNC(=N)N [arginine octyl ester]
critical micelle concentration (cmc) [4]: about 6 mM and ~2.2 mg/ml
solubility in HCl ([6]; HCl): would only dissolve in 0.1 N or stronger HCl
solubility in organics ([6]; alcohols, hydrocarbons, aromatics, DMF, pyridine): insoluble
solubility in water ([6]; water): insoluble

Cc1ccc(S(=O)(=O)[O-])cc1.[Na+] [p-toluenesulfonic acid, sodium salt]
log p ([3]; ester C8 (arginine octyl ester), solvent octanol, pH 5.5 buffer): -0.353
log p ([3]; ester C8, solvent isooctane, pH 5.5 buffer): -2.2
log p ([3]; ester C12 (arginine dodecyl ester), solvent octanol, pH 5.5 buffer): -0.336
log p ([3]; ester none, solvent isooctane, pH 5.5 buffer): -2.7
log p ([3]; ester none, solvent octanol, pH 5.5 buffer): -1.62

Gly-Phe
partitioning into 1-octanol with SDS ([1]; pH 3): mirrors the marked increase seen for Gly-Phe-NH2
partitioning into 1-octanol with SDS ([1]; pH 7 / neutral pH): little enhancement of the partition coefficient

Gly-Phe-NH2
partitioning into 1-octanol with SDS ([1]; pH 7 / neutral pH): readily partitions into 1-octanol

bovine serum albumin: bovine serum albumin, anionic test protein
partitioning into octanol layer ([3]; arginine dodecyl ester added, octanol): none would partition into octanol layer

hGH: human growth hormone; precipitate with SDS at pH 2
solubility in 1-octanol (pH 2): not found to be soluble
aqueous solubility on addition of SDS (pH 7.8): not affected

insulin-SDS complex: hydrophobic ion pair complex of insulin with sodium dodecyl sulfate
structure after prolonged heating ([7]; 1-octanol, 70° C. for more than 1 hour): appears to maintain its native structure
melting point in 1-octanol ([7]; SDS:insulin molar ratio 6:1, 200 ug/ml): about 116 °C
melting point in 1-octanol, CD scan at 222 nm ([7]; SDS:insulin molar ratio 9:1 (FIG. 10)): 106 °C
melting point in 1-octanol, absorbance scan at 222 nm ([7]; SDS:insulin molar ratio 9:1 (FIG. 11)): 106 °C

insulin: insulin, a hydrophilic protein; in Table 1 and in 1-octanol present as SDS complex
Tm in 1-octanol above that observed in water ([7]; 1-octanol vs water): more than 30 degrees
Log P ([8]; organic solvent 1-Chlorooctane): not detectable
Log P ([8]; organic solvent 1-octanol): ≧ 1.2
Log P ([8]; organic solvent CCl4): not detectable
Log P ([8]; organic solvent CH2Cl2): not detectable
Log P ([8]; organic solvent Dimethoxyethane): not detectable
Log P ([8]; organic solvent Ether): not detectable
Log P ([8]; organic solvent Hexane): not detectable
Log P ([8]; organic solvent Mineral Oil): not detectable
Tm of thermal denaturation [9]: about 65 °C
Apparent Sol. ([10]; SDS-insulin complex in 1-Chlorooctane): insoluble
Apparent Sol. ([10]; SDS-insulin complex in 1-octanol): ≧ 1.0 mg/ml
Apparent Sol. ([10]; SDS-insulin complex in CCl4): insoluble
Apparent Sol. ([10]; SDS-insulin complex in CH2Cl2): insoluble
Apparent Sol. ([10]; SDS-insulin complex in DMF): ≧ 1.0 mg/ml
Apparent Sol. ([10]; SDS-insulin complex in Ethanol): ≧ 1.0 mg/ml
Apparent Sol. ([10]; SDS-insulin complex in Ether): insoluble
Apparent Sol. ([10]; SDS-insulin complex in Ethyl acetate): insoluble
Apparent Sol. ([10]; SDS-insulin complex in Hexane): insoluble
Apparent Sol. ([10]; SDS-insulin complex in Methanol): ≧ 1.0 mg/ml
Apparent Sol. ([10]; SDS-insulin complex in Mineral Oil): insoluble
Apparent Sol. ([10]; SDS-insulin complex in NMP): ≧ 1.0 mg/ml
Apparent Sol. ([10]; SDS-insulin complex in PEG 400): ≧ 0.2 mg/ml
Apparent Sol. ([10]; SDS-insulin complex in Propylene Glycol): ≧ 0.5 mg/ml
Apparent Sol. ([10]; SDS-insulin complex in TMP): ≧ 0.2 mg/ml
Apparent Sol. ([10]; SDS-insulin complex in Trifluoroethanol): ≧ 0.5 mg/ml
Apparent Sol. ([10]; SDS-insulin complex in Trimethyl phosphate): ≧ 0.15 mg/ml
Apparent Sol. ([10]; SDS-insulin complex in i-Propanol): ≧ 1.0 mg/ml

From patent US20020032166A1, “Biocompatible cationic detergents and uses therefor” (University Technology Corporation, priority 1992, published 2002)
